Experiment: melting temperature; melt of duplexes
Conditions: sodium 0.0675 M; strand 1 µM
Work on “CGACGTGCCCTATGTGCTG+CAGCACATCTGGCACGTCG (((((((((..((((((((+))))))))..)))))))))” yielded a Tm of 53.2 °C.
“CGACGTGCCCTATGTGCTG+CAGCACATGAAGCACGTCG ((((((((...((((((((+))))))))...))))))))” gave a Tm of 49 °C.
In the case of “CGACGTGCCCTATGTGCTG+CAGCACATGACGCACGTCG ((((((((...((((((((+))))))))...))))))))”, the Tm is reported as 44 °C.
“CGACGTGCCCTATGTGCTG+CAGCACATGCAGCACGTCG ((((((((...((((((((+))))))))...))))))))” showed a Tm of 49.7 °C.
“CGACGTGCCCTATGTGCTG+CAGCACATGCCGCACGTCG ((((((((...((((((((+))))))))...))))))))” gave a Tm of 47.7 °C.
Work on “CGACGTGCCCTATGTGCTG+CAGCACATGCTGCACGTCG ((((((((...((((((((+))))))))...))))))))” yielded a Tm of 45.4 °C.
Substance “CGACGTGCCCTATGTGCTG+CAGCACATGGCGCACGTCG ((((((((.(.((((((((+)))))))).).))))))))” has a Tm of 52.9 °C.
“CGACGTGCCCTATGTGCTG+CAGCACATGGGGCACGTCG ((((((((((.((((((((+)))))))).))))))))))” showed a Tm of 61.4 °C.
“CGACGTGCCCTATGTGCTG+CAGCACATTATGCACGTCG ((((((((...((((((((+))))))))...))))))))” showed a Tm of 48 °C.
For “CGACGTGCCCTATGTGCTG+CAGCACATTCGGCACGTCG (((((((((..((((((((+))))))))..)))))))))”, the Tm was 52.9 °C.
“CGACGTGCCCTATGTGCTG+CAGCACATTGAGCACGTCG ((((((((.(.((((((((+)))))))).).))))))))” showed a Tm of 51.8 °C.
“CGACGTGCCGAATGTGCTG+CAGCACATACTGCACGTCG ((((((((.(.((((((((+)))))))).).))))))))” gave a Tm of 50.2 °C.
In the case of “CGACGTGCCGAATGTGCTG+CAGCACATAGAGCACGTCG ((((((((...((((((((+))))))))...))))))))”, the Tm is reported as 49.9 °C.
“CGACGTGCCGAATGTGCTG+CAGCACATAGGGCACGTCG (((((((((..((((((((+))))))))..)))))))))” gave a Tm of 54.4 °C.
“CGACGTGCCGAATGTGCTG+CAGCACATCAAGCACGTCG ((((((((...((((((((+))))))))...))))))))” showed a Tm of 49.6 °C.
“CGACGTGCCGAATGTGCTG+CAGCACATCACGCACGTCG ((((((((...((((((((+))))))))...))))))))” gave a Tm of 48.9 °C.
“CGACGTGCCGAATGTGCTG+CAGCACATCCAGCACGTCG ((((((((.(.((((((((+)))))))).).))))))))” showed a Tm of 49.8 °C.
In the case of “CGACGTGCCGAATGTGCTG+CAGCACATCCCGCACGTCG ((((((((.(.((((((((+)))))))).).))))))))”, the Tm is reported as 49.6 °C.
“CGACGTGCCGAATGTGCTG+CAGCACATCGCGCACGTCG ((((((((...((((((((+))))))))...))))))))” showed a Tm of 54.7 °C.
“CGACGTGCCGAATGTGCTG+CAGCACATGACGCACGTCG ((((((((...((((((((+))))))))...))))))))” gave a Tm of 50.1 °C.
Substance “CGACGTGCCGAATGTGCTG+CAGCACATGCAGCACGTCG ((((((((.(.((((((((+)))))))).).))))))))” has a Tm of 52.6 °C.
“CGACGTGCCGAATGTGCTG+CAGCACATGCTGCACGTCG ((((((((.(.((((((((+)))))))).).))))))))” gave a Tm of 50.8 °C.
In the case of “CGACGTGCCGAATGTGCTG+CAGCACATGGAGCACGTCG ((((((((...((((((((+))))))))...))))))))”, the Tm is reported as 53.1 °C.
Substance “CGACGTGCCGAATGTGCTG+CAGCACATGTGGCACGTCG (((((((((..((((((((+))))))))..)))))))))” has a Tm of 57.2 °C.
“CGACGTGCCGAATGTGCTG+CAGCACATTAAGCACGTCG ((((((((..(((((((((+)))))))))..))))))))” gave a Tm of 52.3 °C.
In the case of “CGACGTGCCGAATGTGCTG+CAGCACATTCAGCACGTCG ((((((((.((((((((((+)))))))))).))))))))”, the Tm is reported as 57 °C.
“CGACGTGCCGAATGTGCTG+CAGCACATTCCGCACGTCG ((((((((.((((((((((+)))))))))).))))))))” showed a Tm of 56 °C.
For “CGACGTGCCGAATGTGCTG+CAGCACATTGTGCACGTCG ((((((((..(((((((((+)))))))))..))))))))”, the Tm was 50.1 °C.
For “CGACGTGCCGAATGTGCTG+CAGCACATTTCGCACGTCG ((((((((..(((((((((+)))))))))..))))))))”, the Tm was 52.4 °C.
With “CGACGTGCCGAATGTGCTG+CAGCACATTTGGCACGTCG (((((((((.(((((((((+))))))))).)))))))))” the Tm was 60.6 °C.
With “CGACGTGCCGAATGTGCTG+CAGCACATTTTGCACGTCG ((((((((..(((((((((+)))))))))..))))))))” the Tm was 51.7 °C.
“CGACGTGCCGCATGTGCTG+CAGCACATAAAGCACGTCG ((((((((...((((((((+))))))))...))))))))” showed a Tm of 50.1 °C.
For “CGACGTGCCGCATGTGCTG+CAGCACATAATGCACGTCG ((((((((...((((((((+))))))))...))))))))”, the Tm was 47.9 °C.
With “CGACGTGCCGCATGTGCTG+CAGCACATACCGCACGTCG ((((((((.(.((((((((+)))))))).).))))))))” the Tm was 48.9 °C.
“CGACGTGCCGCATGTGCTG+CAGCACATAGTGCACGTCG ((((((((...((((((((+))))))))...))))))))” showed a Tm of 46.8 °C.
Substance “CGACGTGCCGCATGTGCTG+CAGCACATCACGCACGTCG ((((((((...((((((((+))))))))...))))))))” has a Tm of 48.3 °C.
Work on “CGACGTGCCGCATGTGCTG+CAGCACATCAGGCACGTCG (((((((((..((((((((+))))))))..)))))))))” yielded a Tm of 55.5 °C.
Substance “CGACGTGCCGCATGTGCTG+CAGCACATCATGCACGTCG ((((((((...((((((((+))))))))...))))))))” has a Tm of 48.6 °C.
Substance “CGACGTGCCGCATGTGCTG+CAGCACATCCGGCACGTCG ((((((((((.((((((((+)))))))).))))))))))” has a Tm of 58.2 °C.
With “CGACGTGCCGCATGTGCTG+CAGCACATCGAGCACGTCG ((((((((...((((((((+))))))))...))))))))” the Tm was 54.5 °C.
For “CGACGTGCCGCATGTGCTG+CAGCACATGAAGCACGTCG ((((((((..(((((((((+)))))))))..))))))))”, the Tm was 53.8 °C.
In the case of “CGACGTGCCGCATGTGCTG+CAGCACATGACGCACGTCG ((((((((..(((((((((+)))))))))..))))))))”, the Tm is reported as 51.2 °C.
In the case of “CGACGTGCCGCATGTGCTG+CAGCACATGAGGCACGTCG (((((((((.(((((((((+))))))))).)))))))))”, the Tm is reported as 62.6 °C.
For “CGACGTGCCGCATGTGCTG+CAGCACATGCGGCACGTCG (((((((((((((((((((+)))))))))))))))))))”, the Tm was 69.1 °C.
“CGACGTGCCGCATGTGCTG+CAGCACATGGCGCACGTCG ((((((((..(((((((((+)))))))))..))))))))” gave a Tm of 54.9 °C.
Work on “CGACGTGCCGCATGTGCTG+CAGCACATGGGGCACGTCG (((((((((.(((((((((+))))))))).)))))))))” yielded a Tm of 62.6 °C.
“CGACGTGCCGCATGTGCTG+CAGCACATGGTGCACGTCG ((((((((..(((((((((+)))))))))..))))))))” showed a Tm of 52 °C.
For “CGACGTGCCGCATGTGCTG+CAGCACATGTAGCACGTCG ((((((((..(((((((((+)))))))))..))))))))”, the Tm was 54.4 °C.
Substance “CGACGTGCCGCATGTGCTG+CAGCACATGTCGCACGTCG ((((((((..(((((((((+)))))))))..))))))))” has a Tm of 54.3 °C.
In the case of “CGACGTGCCGCATGTGCTG+CAGCACATGTTGCACGTCG ((((((((..(((((((((+)))))))))..))))))))”, the Tm is reported as 54.5 °C.
With “CGACGTGCCGCATGTGCTG+CAGCACATTAGGCACGTCG (((((((((..((((((((+))))))))..)))))))))” the Tm was 55.3 °C.
With “CGACGTGCCGCATGTGCTG+CAGCACATTATGCACGTCG ((((((((...((((((((+))))))))...))))))))” the Tm was 46.4 °C.
Substance “CGACGTGCCGCATGTGCTG+CAGCACATTCTGCACGTCG ((((((((.(.((((((((+)))))))).).))))))))” has a Tm of 48.8 °C.
“CGACGTGCCGCATGTGCTG+CAGCACATTGTGCACGTCG ((((((((...((((((((+))))))))...))))))))” gave a Tm of 45.7 °C.
With “CGACGTGCCGCATGTGCTG+CAGCACATTTGGCACGTCG (((((((((..((((((((+))))))))..)))))))))” the Tm was 53.9 °C.
“CGACGTGCCGCATGTGCTG+CAGCACATTTTGCACGTCG ((((((((...((((((((+))))))))...))))))))” showed a Tm of 46.2 °C.
In the case of “CGACGTGCCGGATGTGCTG+CAGCACATAACGCACGTCG ((((((((...((((((((+))))))))...))))))))”, the Tm is reported as 50 °C.
With “CGACGTGCCGGATGTGCTG+CAGCACATAATGCACGTCG ((((((((...((((((((+))))))))...))))))))” the Tm was 48.6 °C.
In the case of “CGACGTGCCGGATGTGCTG+CAGCACATACGGCACGTCG ((((((((((.((((((((+)))))))).))))))))))”, the Tm is reported as 63.8 °C.
Work on “CGACGTGCCGGATGTGCTG+CAGCACATAGGGCACGTCG (((((((((..((((((((+))))))))..)))))))))” yielded a Tm of 55.9 °C.
“CGACGTGCCGGATGTGCTG+CAGCACATATCGCACGTCG ((((((((...((((((((+))))))))...))))))))” gave a Tm of 49.7 °C.
Work on “CGACGTGCCGGATGTGCTG+CAGCACATCATGCACGTCG ((((((((..(((((((((+)))))))))..))))))))” yielded a Tm of 54.8 °C.
With “CGACGTGCCGGATGTGCTG+CAGCACATCCAGCACGTCG ((((((((.((((((((((+)))))))))).))))))))” the Tm was 59 °C.
For “CGACGTGCCGGATGTGCTG+CAGCACATCCTGCACGTCG ((((((((.((((((((((+)))))))))).))))))))”, the Tm was 58.9 °C.
In the case of “CGACGTGCCGGATGTGCTG+CAGCACATCGCGCACGTCG ((((((((..(((((((((+)))))))))..))))))))”, the Tm is reported as 55.4 °C.
For “CGACGTGCCGGATGTGCTG+CAGCACATGAAGCACGTCG ((((((((...((((((((+))))))))...))))))))”, the Tm was 49.9 °C.
Work on “CGACGTGCCGGATGTGCTG+CAGCACATGACGCACGTCG ((((((((...((((((((+))))))))...))))))))” yielded a Tm of 46.3 °C.
“CGACGTGCCGGATGTGCTG+CAGCACATGATGCACGTCG ((((((((...((((((((+))))))))...))))))))” showed a Tm of 49 °C.
In the case of “CGACGTGCCGGATGTGCTG+CAGCACATGCAGCACGTCG ((((((((.(.((((((((+)))))))).).))))))))”, the Tm is reported as 53.1 °C.
Work on “CGACGTGCCGGATGTGCTG+CAGCACATGCCGCACGTCG ((((((((.(.((((((((+)))))))).).))))))))” yielded a Tm of 53.4 °C.
With “CGACGTGCCGGATGTGCTG+CAGCACATGCTGCACGTCG ((((((((.(.((((((((+)))))))).).))))))))” the Tm was 51.3 °C.
For “CGACGTGCCGGATGTGCTG+CAGCACATGTCGCACGTCG ((((((((...((((((((+))))))))...))))))))”, the Tm was 49.4 °C.
